Experimental data as given in paper PMC11602552 (The Journal of Experimental Medicine, 2024).

Molecular target: wild type eIF6 (eIF6^WT), purified (UniProt O55135 1-245)
Experiment: SPR

- Kd: 1470 nM
B1: Nsun2, purified (enzyme)
chain: MGRRARGRRFQQPPQPEGEEDASDGGRKRGQAGWEGGYPEIVKENKLFEHYYQELKIVPEGEWDQFMESLREPLPATLRITGYKSHAKEILHCLKNKYFKELEDLEVDGQKVEVPQPLSWYPEELAWHTNLSRKILRKSPLLAKFHQFLVSETESGNISRQEAVSMIPPLLLNVEPHHKILDMCAAPGSKTTQLIEMLHADMSVPFPEGFVIANDVDNKRCYLLVHQAKRLSSPCIMVVNHDASSIPRLTVDVDGRKEILFYDRILCDVPCSGDGTMRKNIDVWKKWTTLNSLQLHGLQLRIATRGAEQLAEGGRMVYSTCSLNPVEDEAVIAALLEKSEGALELADVSAELPGLKWMPGVSQWKVMTRDGQWFADWHEVPQGRHTQIRPTMFPPTDLEKLQAMHLERCLRILPHHQNTGGFFVAVLVKKAPMPWNKRQPKVQNKSAEAREPRVSSHVAATEGNPSDQSELESQMITGAGDSETAHNTENTESNEKKDGVCGPPPSKKMKLFGFKEDPFVFIPEDDPLFPPIEKFYALDPSFPRMNLLTRTTEGKKRQLYMVSKELRNVLLNNSEKMKVINTGIKVWCRNNSGEEFDCAFRLAQEGIYTLYPFINSRIITVSMEDVKTLLTQENPFFRKLSSEAYSQVKDLAKGSVVLKYEPDSANPDTLQCPIVLCGWRGKASIRTFVPKNERLHYLRMMGLEVLGEKKKEGVILTNENAASPEQPGDEDAKQTAQDPCVPDSVPGCDAAAAEPSR
